Reference: article PMC9256654, “Mechanistic basis for maintenance of CHG DNA methylation in plants” (Nature Communications, 2022)

Molecular target: T1, Zea mays ZMET2 (residues 130-912), core fragment harboring the CD, BAH and MTase domains (Zea mays, UniProt Q9AXT8 130-912, in the crystallised complex C517 is covalently linked to the target 5-fluorocytosine (fC10) of the hmCAG DNA)
T1 construct: ZMET2, chromomethylase, CMT3 ortholog of Zea mays, residues 130-912; in the enzymatic assays and the EMSA the free protein was used; also called WT ZMET2; source: E. coli BL21 DE3 (RIL), purified (Ni-NTA, Heparin HP, Superdex 200); not shown: His6-SUMO, N-terminal, cleaved
T1 sequence (looked up): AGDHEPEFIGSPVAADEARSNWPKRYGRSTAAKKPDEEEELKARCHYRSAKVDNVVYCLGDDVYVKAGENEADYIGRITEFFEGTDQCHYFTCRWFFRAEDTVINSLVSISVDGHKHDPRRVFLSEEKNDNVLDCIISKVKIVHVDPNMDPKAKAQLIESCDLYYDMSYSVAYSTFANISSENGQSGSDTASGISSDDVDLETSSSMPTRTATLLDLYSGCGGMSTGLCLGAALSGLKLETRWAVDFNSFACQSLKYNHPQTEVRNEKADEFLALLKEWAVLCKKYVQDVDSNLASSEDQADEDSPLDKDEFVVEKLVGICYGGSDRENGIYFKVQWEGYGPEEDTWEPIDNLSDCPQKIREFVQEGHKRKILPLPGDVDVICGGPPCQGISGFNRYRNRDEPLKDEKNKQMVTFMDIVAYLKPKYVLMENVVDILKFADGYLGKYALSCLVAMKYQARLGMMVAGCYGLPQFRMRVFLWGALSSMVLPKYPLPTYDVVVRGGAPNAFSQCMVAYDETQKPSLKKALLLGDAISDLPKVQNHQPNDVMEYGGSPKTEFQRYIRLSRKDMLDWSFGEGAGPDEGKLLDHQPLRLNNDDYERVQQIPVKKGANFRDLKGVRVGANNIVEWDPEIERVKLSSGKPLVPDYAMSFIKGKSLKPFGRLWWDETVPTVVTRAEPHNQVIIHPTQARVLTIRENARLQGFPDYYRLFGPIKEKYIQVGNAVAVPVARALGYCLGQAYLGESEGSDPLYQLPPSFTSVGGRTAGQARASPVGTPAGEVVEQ
Assay: crystal structure; covalent ZMET2-hmCAG DNA complex with the H3_(1–32)Kc9me2 peptide and SAH; sitting drop at 4 °C, 0.1 M sodium citrate pH 5.5, 15% w/v polyethylene glycol 6000
Settings: both partners purified

B1: histone H3 peptide residues 1-32 harboring the Kc9me2 modification (methyl-lysine analog of H3K9me2) (peptide)
peptide: not shown
modifications: Kc9me2: cysteine 9 (K9C) alkylated with (2-chloroethyl)-dimethylammonium chloride to the methyl-lysine analog of dimethyl-lysine
notes: Histone H3 residues 1-32; The removal of the His6-SUMO tag is told only through 'initial purification as described above'; also called H3_(1–32)Kc9me2; H3Kc9me2; source: E. coli BL21 DE3 (RIL), purified (HiTrap SP HP), alkylated, purified again (HiTrap SP HP); not shown: His6-SUMO, N-terminal, cleaved
With B1 the “stoichiometry N” value was 2 peptides per ZMET2 complex.
